These results are taken from PMC9482650, “Quantitative fragmentomics allow affinity mapping of interactomes” (Nature Communications, 2022).

Among the targets are NHERF2_2, Q15599; Inadl_4, Q8NI35; PARD3_3, Q8TEW0; GRID2IP_2, A4D2P6; IL16_3, Q14005; GRIP2_5, Q9C0E4; IL16_1, Q14005; MAST1, Q9Y2H9; DLG5_1, Q8TDM6; DLG2_3, Q15700.
Assay in all cases: holdup assay
Common to all, as to parameters: key: below the threshold = too weak to quantify, mostly under pKd 3.1 to 4
Holding throughout (conditions): plain residues with an end cap or a label only (N-terminal biotin on a linker: ado-ado)

In the next test the target is T1, APBA1_1, Q02410.
T1 sequence (Q02410 651-752, limits assumed, looked up): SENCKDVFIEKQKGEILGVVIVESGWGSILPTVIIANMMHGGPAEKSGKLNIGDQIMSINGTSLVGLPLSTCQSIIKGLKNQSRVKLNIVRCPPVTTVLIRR

The next test deals with T2, PDZD7_3, Q9H5P4.
T2 sequence (Q9H5P4 857-944, limits assumed, looked up): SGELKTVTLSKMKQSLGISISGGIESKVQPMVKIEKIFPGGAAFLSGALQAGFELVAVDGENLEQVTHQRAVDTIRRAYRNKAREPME

In the next test the target is T3, GRIP1_4, Q9Y3R0.
T3 sequence (Q9Y3R0 467-571, limits assumed, looked up): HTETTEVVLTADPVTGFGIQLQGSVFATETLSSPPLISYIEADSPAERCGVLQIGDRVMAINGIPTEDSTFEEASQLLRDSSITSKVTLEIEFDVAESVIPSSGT

A further test deals with T4, GRIP1_3, Q9Y3R0.
T4 sequence (Q9Y3R0 247-346, limits assumed, looked up): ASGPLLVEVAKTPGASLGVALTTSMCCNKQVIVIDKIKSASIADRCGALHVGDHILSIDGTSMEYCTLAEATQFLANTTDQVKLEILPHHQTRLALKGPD

Another test addresses T5, HTRA4, P83105.
T5 sequence (P83105 378-476, limits assumed, looked up): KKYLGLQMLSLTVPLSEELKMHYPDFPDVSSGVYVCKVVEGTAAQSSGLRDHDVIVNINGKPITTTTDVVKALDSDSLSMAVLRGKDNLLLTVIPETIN

For another test, the target named is T6, DLG3_3, Q92796.
T6 sequence (Q92796 374-475, limits assumed, looked up): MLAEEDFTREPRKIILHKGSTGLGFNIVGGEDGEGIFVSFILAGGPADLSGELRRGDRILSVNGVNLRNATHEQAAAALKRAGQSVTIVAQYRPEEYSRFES

The target in another test is T7, APBA1_2, Q02410.
T7 sequence (Q02410 742-832, limits assumed, looked up): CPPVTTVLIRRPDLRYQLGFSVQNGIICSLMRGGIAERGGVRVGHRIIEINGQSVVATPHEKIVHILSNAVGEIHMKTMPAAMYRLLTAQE

In the next test the target is T8, DFNB31_1, Q9P202.
T8 sequence (Q9P202 135-233, limits assumed, looked up): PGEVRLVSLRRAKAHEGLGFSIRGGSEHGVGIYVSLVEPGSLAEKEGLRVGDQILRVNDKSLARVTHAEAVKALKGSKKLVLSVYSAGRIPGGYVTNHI

The target of a further test is T9, APBA2_2, Q99767.
T9 sequence (Q99767 654-744, limits assumed, looked up): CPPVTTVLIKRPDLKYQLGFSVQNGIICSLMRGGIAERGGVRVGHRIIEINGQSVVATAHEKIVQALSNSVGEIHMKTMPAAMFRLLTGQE

The target of the next test is T10, ARHGEF11, O15085.
T10 sequence (O15085 42-136, limits assumed, looked up): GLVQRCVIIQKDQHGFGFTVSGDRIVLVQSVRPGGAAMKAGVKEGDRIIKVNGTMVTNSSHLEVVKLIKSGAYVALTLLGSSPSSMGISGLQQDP

The target of the next test is T11, MPP6, Q9NZW5.
T11 sequence (Q9NZW5 125-219, limits assumed, looked up): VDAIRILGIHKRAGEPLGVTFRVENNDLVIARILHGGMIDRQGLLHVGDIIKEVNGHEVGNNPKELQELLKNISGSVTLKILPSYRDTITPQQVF

The next test has as its target T12, GRIP1_2, Q9Y3R0.
T12 sequence (Q9Y3R0 145-248, limits assumed, looked up): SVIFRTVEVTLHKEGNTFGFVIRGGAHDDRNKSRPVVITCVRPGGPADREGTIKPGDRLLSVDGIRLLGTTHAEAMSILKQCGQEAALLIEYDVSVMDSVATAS

The target in a further test is T13, SNTG2, Q9NY99.
T13 sequence (Q9NY99 68-166, limits assumed, looked up): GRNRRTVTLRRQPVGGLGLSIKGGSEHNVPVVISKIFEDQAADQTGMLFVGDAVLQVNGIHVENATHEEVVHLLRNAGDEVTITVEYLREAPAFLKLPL

Another test addresses T14, MPP7, Q5T2T1.
T14 sequence (Q5T2T1 134-230, limits assumed, looked up): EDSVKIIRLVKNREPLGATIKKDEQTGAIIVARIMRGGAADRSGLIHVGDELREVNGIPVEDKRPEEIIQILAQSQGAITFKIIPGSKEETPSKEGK

Sequence of Inadl_4, Q8NI35 (Q8NI35 547-651): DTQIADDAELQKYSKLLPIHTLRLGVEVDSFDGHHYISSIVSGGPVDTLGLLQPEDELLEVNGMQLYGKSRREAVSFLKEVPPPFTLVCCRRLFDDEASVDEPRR
Sequence of IL16_3, Q14005 (Q14005 1107-1207): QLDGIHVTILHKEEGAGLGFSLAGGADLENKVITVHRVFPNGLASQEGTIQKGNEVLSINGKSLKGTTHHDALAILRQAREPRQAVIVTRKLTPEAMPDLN
Sequence of MAST1, Q9Y2H9 (Q9Y2H9 962-1065): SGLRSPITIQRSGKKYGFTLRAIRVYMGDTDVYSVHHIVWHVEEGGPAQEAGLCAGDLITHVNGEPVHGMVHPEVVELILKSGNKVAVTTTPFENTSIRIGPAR
Sequence of IL16_1, Q14005 (Q14005 210-306): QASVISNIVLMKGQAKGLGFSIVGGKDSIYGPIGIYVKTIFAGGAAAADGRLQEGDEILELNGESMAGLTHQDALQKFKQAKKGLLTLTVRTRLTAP
Sequence of GRID2IP_2, A4D2P6 (A4D2P6 272-370): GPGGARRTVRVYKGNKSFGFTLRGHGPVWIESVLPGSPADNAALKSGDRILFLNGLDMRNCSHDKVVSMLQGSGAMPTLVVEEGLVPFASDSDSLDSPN
Sequence of PARD3_3, Q8TEW0 (Q8TEW0 582-685): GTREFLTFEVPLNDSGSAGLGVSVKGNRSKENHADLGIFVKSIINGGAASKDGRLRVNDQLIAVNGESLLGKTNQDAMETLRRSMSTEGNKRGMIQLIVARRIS
Sequence of GRIP2_5, Q9C0E4 (Q9C0E4 544-642): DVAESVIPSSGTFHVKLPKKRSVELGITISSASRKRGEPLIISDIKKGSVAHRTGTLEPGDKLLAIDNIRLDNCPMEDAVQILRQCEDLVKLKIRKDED
Sequence of DLG5_1, Q8TDM6 (Q8TDM6 617-713): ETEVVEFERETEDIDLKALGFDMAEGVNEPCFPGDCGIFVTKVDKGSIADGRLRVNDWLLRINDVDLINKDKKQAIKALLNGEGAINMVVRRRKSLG
Sequence of NHERF2_2, Q15599 (Q15599 142-238): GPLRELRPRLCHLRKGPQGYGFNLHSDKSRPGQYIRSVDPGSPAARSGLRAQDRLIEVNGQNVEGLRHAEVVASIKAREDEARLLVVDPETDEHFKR

As to VKRNSKETVV [MARCHF3, Q86UD3], the pKd (in general, the Kd on a negative log10 scale, so that one unit is a factor of ten) was “below the threshold” with NHERF2_2, Q15599; “below the threshold” in the test with APBA1_1, Q02410; 4.82 with PDZD7_3, Q9H5P4; “below the threshold” with Inadl_4, Q8NI35; “below the threshold” in the test with GRIP1_4, Q9Y3R0; “below the threshold” in the test with GRIP1_3, Q9Y3R0. Further, the pKd result in the test with PARD3_3, Q8TEW0 is “below the threshold”; in the test with GRID2IP_2, A4D2P6, “below the threshold”; in the test with HTRA4, P83105 it was “below the threshold”; with DLG3_3, Q92796, 4.7; with IL16_3, Q14005 it was “below the threshold”; in the test with APBA1_2, Q02410, 3.88. Moreover, the pKd entry with GRIP2_5, Q9C0E4 was “below the threshold”; with DFNB31_1, Q9P202 it was 3.64; with IL16_1, Q14005 it was 3.94; with APBA2_2, Q99767, “below the threshold”; with MAST1, Q9Y2H9 it was “below the threshold”; with DLG5_1, Q8TDM6, “below the threshold”. Also, the pKd in the test with ARHGEF11, O15085 was 4.04; with DLG2_3, Q15700 it was 4.91; with MPP6, Q9NZW5, “below the threshold”; with GRIP1_2, Q9Y3R0, “below the threshold”; in the test with SNTG2, Q9NY99, 4.54; with MPP7, Q5T2T1, “below the threshold”.

As to MQHQRTHTRV [ZSCAN30, Q86W11], the pKd with NHERF2_2, Q15599 was 3.67; in the test with APBA1_1, Q02410, “below the threshold”; with PDZD7_3, Q9H5P4 it was 4.37; in the test with Inadl_4, Q8NI35, “below the threshold”; with GRIP1_4, Q9Y3R0, “below the threshold”; in the test with GRIP1_3, Q9Y3R0, “below the threshold”. The pKd result was “below the threshold” with PARD3_3, Q8TEW0; 3.77 in the test with GRID2IP_2, A4D2P6; “below the threshold” in the test with HTRA4, P83105; 4.3 with DLG3_3, Q92796; “below the threshold” in the test with IL16_3, Q14005; 3.52 with APBA1_2, Q02410. Also, the pKd result with GRIP2_5, Q9C0E4 is “below the threshold”; with DFNB31_1, Q9P202 it was 3.81; with IL16_1, Q14005, “below the threshold”; in the test with APBA2_2, Q99767 it was “below the threshold”; with MAST1, Q9Y2H9, 3.54; with DLG5_1, Q8TDM6, “below the threshold”. Also, the pKd with ARHGEF11, O15085 was 4.3; in the test with DLG2_3, Q15700, 4.67; with MPP6, Q9NZW5, “below the threshold”; in the test with GRIP1_2, Q9Y3R0, “below the threshold”; with SNTG2, Q9NY99 it was 3.86; with MPP7, Q5T2T1 it was “below the threshold”.

Turning to NIAESLESLV [PTPRZ1, P23471], the pKd entry was “below the threshold” with NHERF2_2, Q15599; “below the threshold” in the test with APBA1_1, Q02410; 4.7 in the test with PDZD7_3, Q9H5P4; “below the threshold” with Inadl_4, Q8NI35; “below the threshold” in the test with GRIP1_4, Q9Y3R0; “below the threshold” with GRIP1_3, Q9Y3R0. Moreover, the pKd with PARD3_3, Q8TEW0 was 4.18; in the test with GRID2IP_2, A4D2P6, “below the threshold”; in the test with HTRA4, P83105 it was “below the threshold”; in the test with DLG3_3, Q92796, “below the threshold”; with IL16_3, Q14005, “below the threshold”; with APBA1_2, Q02410, “below the threshold”. The pKd entry with GRIP2_5, Q9C0E4 was “below the threshold”; in the test with DFNB31_1, Q9P202, 3.8; in the test with IL16_1, Q14005, 4.6; with APBA2_2, Q99767, “below the threshold”; in the test with MAST1, Q9Y2H9, “below the threshold”; with DLG5_1, Q8TDM6, “below the threshold”. In addition, the pKd in the test with ARHGEF11, O15085 was 3.67; with DLG2_3, Q15700, “below the threshold”; in the test with MPP6, Q9NZW5, “below the threshold”; with GRIP1_2, Q9Y3R0, “below the threshold”; with SNTG2, Q9NY99, 4.34; with MPP7, Q5T2T1, “below the threshold”.

On to ILRKSTTTTV [PRR16, Q569H4], for which the pKd result with NHERF2_2, Q15599 is “below the threshold”; with APBA1_1, Q02410, “below the threshold”; with PDZD7_3, Q9H5P4, 4.67; in the test with Inadl_4, Q8NI35, “below the threshold”; with GRIP1_4, Q9Y3R0, “below the threshold”; with GRIP1_3, Q9Y3R0, “below the threshold”. The pKd entry was “below the threshold” with PARD3_3, Q8TEW0; 3.8 with GRID2IP_2, A4D2P6; 4.12 in the test with HTRA4, P83105; 3.97 with DLG3_3, Q92796; “below the threshold” with IL16_3, Q14005; “below the threshold” with APBA1_2, Q02410. In addition, the pKd result with GRIP2_5, Q9C0E4 is “below the threshold”; in the test with DFNB31_1, Q9P202, “below the threshold”; with IL16_1, Q14005 it was “below the threshold”; with APBA2_2, Q99767, “below the threshold”; with MAST1, Q9Y2H9 it was 4.29; with DLG5_1, Q8TDM6, “below the threshold”. For the same molecule, the pKd was 4.04 with ARHGEF11, O15085; 4.38 in the test with DLG2_3, Q15700; “below the threshold” in the test with MPP6, Q9NZW5; “below the threshold” with GRIP1_2, Q9Y3R0; “below the threshold” in the test with SNTG2, Q9NY99; “below the threshold” with MPP7, Q5T2T1.
